Data set [1] addresses T1, RAR/RXR heterodimer (UniProt P10276;P19793 P10276:1-462,P19793:1-462). Briefly: EMSA; high affinity; 10-fold excess of unlabeled site competes. The following applies: label: 32P. (In EMSA bound probe runs differently from free probe, usually more slowly.)
Data set [2] has as its target T1, RAR/RXR heterodimer. Nature of the data set: EMSA; high affinity; also competes for CRBPII-RXRE binding. As to conditions: label: 32P.
Data set [3] concerns the molecule itself. Nature of the data set: gel mobility shift, 32P-labeled DR-1 probe.
For data set [4], the target named is T2, COUP-TF/RXRalpha heterodimer (UniProt P10589;P19793 P10589:1-423,P19793:1-462). Nature of the data set: EMSA; supershift data similar to DR-1. As to conditions: tags: RXR as GST fusion; label: 32P.
Data set [5] has as its target T3, hRARα expressed in cells from RS-hRARα (human, UniProt P10276 1-462).
T3 construct: Intracellular expression; whole cell extracts in the Cos cell gel shifts; also called RS-hRARa; RS-RARα
T3 sequence (looked up): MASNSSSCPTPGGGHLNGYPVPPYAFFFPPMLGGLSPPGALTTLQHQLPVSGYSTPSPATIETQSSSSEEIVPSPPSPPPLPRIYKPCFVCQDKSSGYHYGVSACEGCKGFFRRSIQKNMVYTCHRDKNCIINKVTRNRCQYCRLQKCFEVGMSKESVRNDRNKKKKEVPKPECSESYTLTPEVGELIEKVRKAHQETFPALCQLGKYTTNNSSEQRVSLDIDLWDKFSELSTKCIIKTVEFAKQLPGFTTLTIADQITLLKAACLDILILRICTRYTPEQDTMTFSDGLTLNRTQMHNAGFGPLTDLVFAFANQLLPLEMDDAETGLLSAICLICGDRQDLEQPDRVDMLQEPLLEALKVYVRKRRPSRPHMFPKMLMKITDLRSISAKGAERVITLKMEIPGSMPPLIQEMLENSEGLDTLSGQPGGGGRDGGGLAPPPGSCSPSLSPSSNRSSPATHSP
Nature of the data set: gel mobility shift, βRARE probe, whole-cell extracts of transfected Cos cells. As to the method: DNA-protein complexes were resolved on a 4% polyacrylamide gel in 0.5×TBE (1×TBE=90 mM Tris, 90 mM boric acid, 2 mM EDTA).

The next data set has as its target T4, COUP-TF (EAR-3) (UniProt P10589 P10589:1-423).
T4 sequence: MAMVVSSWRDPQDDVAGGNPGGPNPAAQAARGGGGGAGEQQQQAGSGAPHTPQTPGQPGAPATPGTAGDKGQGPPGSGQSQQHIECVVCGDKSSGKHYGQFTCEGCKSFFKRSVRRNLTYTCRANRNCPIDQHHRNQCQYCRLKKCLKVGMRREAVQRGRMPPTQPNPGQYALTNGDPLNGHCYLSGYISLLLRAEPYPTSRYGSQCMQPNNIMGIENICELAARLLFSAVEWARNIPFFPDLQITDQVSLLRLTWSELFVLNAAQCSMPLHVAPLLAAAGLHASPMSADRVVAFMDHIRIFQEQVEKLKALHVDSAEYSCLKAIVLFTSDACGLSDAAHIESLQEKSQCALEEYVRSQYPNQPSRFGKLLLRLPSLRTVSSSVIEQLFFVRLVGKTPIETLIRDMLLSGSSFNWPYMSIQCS
Briefly: EMSA; COUP-TF-specific complex, 500 ng protein. The following applies: tags: none, pET-8C bacterial expression, partially purified; label: 32P. As to the method:
(§1) Bacterial-expressed COUP-TF and RXR-glutathione-S-transferase fusion protein (RXR-GST) were mixed and the resulting complexes analyzed by gel mobility shift assays using ^32P-labeled DR-1 oligonucleotide (i e., SEQ ID No. 21) as probe. The larger RXR fusion protein was used in order to maximize the migratory differences observed between the COUP-TF and RXR complexes.
(§2) Gel mobility shift assays were performed using ^32P-labeled DR-1 oligonucleotide (SEQ ID No. 21) in the presence of partially-purified COUP-TF (500 ng) and increasing amounts of partially-purified RXR (1×–50 ng) as indicated in FIG. 1. Either 0.3 μl or 1 μl of RXR-specific antiserum was included in the assays (shown in lanes 11 and 12, respectively). The positions of the RXR-specific and COUP-TF-specific complexes are indicated in FIG. 1 by a plain line ("–"). […] The free probe was run off the gel and is not shown.

Data set [6] addresses T2, COUP-TF/RXRalpha heterodimer. Nature of the data set: EMSA; heterodimer favored over homodimers; supershifted by RXR antiserum. The following applies: tags: RXR as GST fusion; label: 32P. How it is done: as §1, §2

B1: CRBPII-RXRE (dsDNA)
DNA 1: AGCTGTCACAGGTCACAGGTCACAGGTCACAGTTCAAGCT
DNA 2: AGCTTGAACTGTGACCTGTGACCTGTGACCTGTGACAGCT
Consider B1, for which the binding result with RAR/RXR heterodimer [1] is given as “binds”.

B2: βRARE (dsDNA)
DNA 1: AGCTTAAGGGTTCACCGAAAGTTCACTCGCATAGCTGCT
DNA 2: AGCAGCTATGCGAGTGAACTTTCGGTGAACCCTTAAGCT
As to B2, in the data set with RAR/RXR heterodimer [2], the binding result was “binds”.

B3: chicken ovalbumin upstream promotor transcription factor (COUP-TF; EAR-3) (receptor, UniProt P10589 1-423, looked up)
chain: MAMVVSSWRDPQDDVAGGNPGGPNPAAQAARGGGGGAGEQQQQAGSGAPHTPQTPGQPGAPATPGTAGDKGQGPPGSGQSQQHIECVVCGDKSSGKHYGQFTCEGCKSFFKRSVRRNLTYTCRANRNCPIDQHHRNQCQYCRLKKCLKVGMRREAVQRGRMPPTQPNPGQYALTNGDPLNGHCYLSGYISLLLRAEPYPTSRYGSQCMQPNNIMGIENICELAARLLFSAVEWARNIPFFPDLQITDQVSLLRLTWSELFVLNAAQCSMPLHVAPLLAAAGLHASPMSADRVVAFMDHIRIFQEQVEKLKALHVDSAEYSCLKAIVLFTSDACGLSDAAHIESLQEKSQCALEEYVRSQYPNQPSRFGKLLLRLPSLRTVSSSVIEQLFFVRLVGKTPIETLIRDMLLSGSSFNWPYMSIQCS
notes: mature; Partially purified bacterial protein in the gel shifts; also called bacterially-expressed COUP-TF; RS-COUP-TF product
Consider B3, for which the binding result in data set [3] was “binds”.

B4: COUP-TF RE (ovalbumin) (dsDNA)
DNA 1: AGCTTGGTGTCAAAGGTCAAACTTAGCT
DNA 2: AGCTAAGTTTGACCTTTGACACCAAGCT
As to B4, in data set [4], the binding result was “binds”.

B5: hRXRα expressed in cells from RS-hRXRα (receptor, human, UniProt P19793 1-462, looked up)
chain: MDTKHFLPLDFSTQVNSSLTSPTGRGSMAAPSLHPSLGPGIGSPGQLHSPISTLSSPINGMGPPFSVISSPMGPHSMSVPTTPTLGFSTGSPQLSSPMNPVSSSEDIKPPLGLNGVLKVPAHPSGNMASFTKHICAICGDRSSGKHYGVYSCEGCKGFFKRTVRKDLTYTCRDNKDCLIDKRQRNRCQYCRYQKCLAMGMKREAVQEERQRGKDRNENEVESTSSANEDMPVERILEAELAVEPKTETYVEANMGLNPSSPNDPVTNICQAADKQLFTLVEWAKRIPHFSELPLDDQVILLRAGWNELLIASFSHRSIAVKDGILLATGLHVHRNSAHSAGVGAIFDRVLTELVSKMRDMQMDKTELGCLRAIVLFNPDSKGLSNPAEVEALREKVYASLEAYCKHKYPEQPGRFAKLLLRLPALRSIGLKCLEHLFFFKLIGDTPIDTFLMEMLEAPHQMT
notes: Intracellular expression; whole cell extracts in the Cos cell gel shifts; also called RS-hRXRa
As to B5, the binding result in data set [5] was “binds”.

B6: RXR-glutathione-S-transferase fusion protein (hRXRα expressed in bacteria as a fusion with glutathione-S-transferase, pGEX-2T) (receptor, human, UniProt P19793 1-462, looked up)
chain: MDTKHFLPLDFSTQVNSSLTSPTGRGSMAAPSLHPSLGPGIGSPGQLHSPISTLSSPINGMGPPFSVISSPMGPHSMSVPTTPTLGFSTGSPQLSSPMNPVSSSEDIKPPLGLNGVLKVPAHPSGNMASFTKHICAICGDRSSGKHYGVYSCEGCKGFFKRTVRKDLTYTCRDNKDCLIDKRQRNRCQYCRYQKCLAMGMKREAVQEERQRGKDRNENEVESTSSANEDMPVERILEAELAVEPKTETYVEANMGLNPSSPNDPVTNICQAADKQLFTLVEWAKRIPHFSELPLDDQVILLRAGWNELLIASFSHRSIAVKDGILLATGLHVHRNSAHSAGVGAIFDRVLTELVSKMRDMQMDKTELGCLRAIVLFNPDSKGLSNPAEVEALREKVYASLEAYCKHKYPEQPGRFAKLLLRLPALRSIGLKCLEHLFFFKLIGDTPIDTFLMEMLEAPHQMT
notes: GST placed N-terminal as in pGEX-2T vectors; also called RXR-GST; GST-RXR; not shown: glutathione-S-transferase encoded by the pGEX-2T expression vector
B6: the binding result in data set [3] was “binds”.

B7: DR-1 (dsDNA)
DNA 1: AGCTTCAGGTCAGAGGTCAGAGAGCT
DNA 2: AGCTCTCTGACCTCTGACCTGAAGCT
For the molecule B7, the binding result (with COUP-TF (EAR-3); in data set [6]) was “binds” each time.

For the origin of these results see US7038022, “Multimeric forms of members of the steroid/thyroid superfamily of receptors” (The Salk Institute for Biological Studies).
